Source: PMC7721913

Target: HA-SFPQ (human) (UniProt P23246)
Assay: co-IP

Sequence of Myc-KLC1 ΔTail (domain or fragment) (O88447 whole entry, stated change not applied, the tested form may be a part): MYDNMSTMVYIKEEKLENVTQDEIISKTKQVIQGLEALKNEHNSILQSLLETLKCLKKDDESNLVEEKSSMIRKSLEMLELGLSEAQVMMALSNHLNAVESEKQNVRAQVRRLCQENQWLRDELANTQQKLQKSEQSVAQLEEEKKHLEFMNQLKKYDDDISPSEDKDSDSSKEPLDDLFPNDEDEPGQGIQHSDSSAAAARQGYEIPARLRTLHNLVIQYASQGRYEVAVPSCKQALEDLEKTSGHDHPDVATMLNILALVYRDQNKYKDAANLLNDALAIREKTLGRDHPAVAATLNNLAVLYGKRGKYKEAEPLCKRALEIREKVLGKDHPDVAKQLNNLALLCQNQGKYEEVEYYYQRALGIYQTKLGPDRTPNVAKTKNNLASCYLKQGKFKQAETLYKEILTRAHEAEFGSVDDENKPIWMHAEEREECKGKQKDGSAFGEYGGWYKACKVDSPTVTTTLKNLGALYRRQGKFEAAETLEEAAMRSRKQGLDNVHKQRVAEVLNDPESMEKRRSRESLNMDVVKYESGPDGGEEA
Sequence of HA-SFPQ (human) (P23246 whole entry): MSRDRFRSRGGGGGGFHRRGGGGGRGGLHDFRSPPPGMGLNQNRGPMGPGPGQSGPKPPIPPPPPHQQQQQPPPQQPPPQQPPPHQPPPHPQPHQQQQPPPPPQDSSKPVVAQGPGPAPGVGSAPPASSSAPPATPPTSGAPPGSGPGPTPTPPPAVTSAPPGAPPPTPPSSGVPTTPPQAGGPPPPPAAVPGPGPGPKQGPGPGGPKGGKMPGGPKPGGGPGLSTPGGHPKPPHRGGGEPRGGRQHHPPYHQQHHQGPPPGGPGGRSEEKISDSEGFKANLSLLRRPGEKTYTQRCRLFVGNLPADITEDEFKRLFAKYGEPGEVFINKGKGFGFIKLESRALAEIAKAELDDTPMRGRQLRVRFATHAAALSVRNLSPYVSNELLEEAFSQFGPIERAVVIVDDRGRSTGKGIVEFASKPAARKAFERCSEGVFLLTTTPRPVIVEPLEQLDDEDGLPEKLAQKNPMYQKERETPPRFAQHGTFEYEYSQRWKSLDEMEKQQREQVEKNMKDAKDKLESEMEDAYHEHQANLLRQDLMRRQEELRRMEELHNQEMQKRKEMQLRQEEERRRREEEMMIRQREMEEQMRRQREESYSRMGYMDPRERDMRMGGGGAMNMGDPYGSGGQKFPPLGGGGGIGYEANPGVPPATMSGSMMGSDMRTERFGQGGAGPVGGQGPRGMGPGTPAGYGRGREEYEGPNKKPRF

Myc-KLC1 ΔTail (domain or fragment)
reduction of binding against WT KLC1: 50%
